# Experimental data: paper PMC3897551 (Current biology : CB, 2013)
# B1: GFP-tagged MCAK containing aa 187-730 (GMΔNT) (domain or fragment, UniProt Q91636 187-730, looked up)
# chain: GRNNQGRRKSNIVKEMEKMKNKREEQRAQNYERRMKRAQDYDTSVPNWEFGKMIKEFRATMDCHRISMADPAEEHRICVCVRKRPLNKQELSKKEIDIISVPSKNIVLVHEPKLKVDLTKYLENQAFRFDFSFDETATNEVVYRFTARPLVQSIFEGGKATCFAYGQTGSGKTHTMGGDFSGKSQNVSKGVYAFASRDVFLLLDQPRYKHLDLDVFVTFFEIYNGKVFDLLNKKTKLRVLEDAKQEVQVVGLLEKQVISADDVFKMIEIGSACRTSGQTFANTSSSRSHACLQIILRRGSKLHGKFSLVDLAGNERGVDTASADRITRMEGAEINRSLLALKECIRALGQNKSHTPFRESKLTQILRDSFIGENSRTCMIAMLSPGFNSCEYTLNTLRYADRVKELSPQNAETNDDNLQMEDSGGSHASIEGLQLQDDFLLKDEELSTHNSFQDALNRVGELEDKAVDELRELVQKEPEWTNLLQMTEQPDYDLENFVMQAEYLIQERSKVLIALGDSINSLRLALQVEEQASKQISKKKRSNK
# Biological target: the molecule itself
# Test: two-step photobleaching of single molecules
protein,measurement,value
B1,stoichiometry N,2
